Data published in article PMC5959871, “Bacterial encapsulins as orthogonal compartments for mammalian cell engineering” (Nature Communications, 2018).

Target: T1, MxEncA^FLAG, encapsulin shell protein A from Myxococcus xanthus with C-terminal FLAG tag (Myxococcus xanthus, UniProt Q1D6H4 1-287)
T1 construct: MxEncA, encapsulin shell protein of Myxococcus xanthus, mammalian codon-optimized synthetic gene; A^FLAG printed as 32.9 kDa; Assembles into shells of 60 (T = 1) or 180 (T = 3) subunits; also called nanoshell; source: also purified by anti-FLAG beads and FLAG-peptide elution; not shown: FLAG, C-terminal, kept
Assay: native gel or EMSA; Blue Native PAGE (NativePAGE 3-12% Bis-Tris) of material eluted from the anti-FLAG Co-IP or the Strep-Tactin purification; Coomassie or silver stain
Conditions: both partners purified

Binder | binding result
Encapsulin cargo protein D, non-tagged, from the multi-gene construct BCDP2A (natural protein, Myxococcus xanthus, UniProt Q1D9P3 1-109, looked up, MxEncD, native cargo protein of Myxococcus xanthus encapsulin, expressed from a single reading frame with B and C separated by P2A peptides; P2A skipping probably leaves residues of the P2A peptide on the proteins; also called MxEncD; EncD) MAKNSNPSAFDRDFGYLMPFLDRVAAAASDLEDASARAELTRLMVEEKARWQRIQELLGGAGGRGAAAPTPAREAPAEAPRLARGSADELHEAAPFATGLTVGSLRGSR | binds
Encapsulin cargo protein C, non-tagged, from the multi-gene construct BCDP2A (natural protein, Myxococcus xanthus, UniProt Q1D3Y8 1-130, looked up, MxEncC, ferritin-like native cargo protein of Myxococcus xanthus encapsulin, expressed from a single reading frame with B and D separated by P2A peptides; P2A skipping probably leaves residues of the P2A peptide on the proteins; also called MxEncC; EncC) MPQTNPFHSLVPRKMTDTELARSIRLNIEAELDAINLYAAHIDATDNEDAKAILQHVMDEEREHAALFWELIARLDPEQAAHAKEAVEKYRLITSGASHEAVEAVGKEGAAPSPADVTPEKRLTVGSLRR | binds
Encapsulin cargo protein B, non-tagged, from the multi-gene construct BCDP2A (natural protein, Myxococcus xanthus, UniProt Q1D6H3 1-158, looked up, MxEncB, ferritin-like native cargo protein of Myxococcus xanthus encapsulin, expressed from a single reading frame with C and D separated by P2A peptides; P2A skipping probably leaves residues of the P2A peptide on the proteins; also called MxEncB; EncB) MAGPPDSDLDDVARIRLVLARELETINEYEAYARASSNPEVRAFFQHLAAEEKEHVSEAVHMLRMLDSGQNDHFAKPFVPGHFQAAEAPAPATVHVPTPDGPAFSVNGRNGRLPSEPPTSLPPQRLLYGLPAPPPAVESHPLTVGSLRRGGGGSGSGR | binds
